Our source for the Kd, koff and kon values is publication PMC9850916.

For the assay, the target named is mutant human FcγRIIIa (V158) ectodomain (amino acid residues 1–175) with nine amino acid mutations a (human). In words: SPR. On the technique in general: Surface plasmon resonance follows binding to a sensor surface in real time, without labels.

pKd: −log10 of the molar value.

Usually pKd stands for the Kd on a negative log10 scale, so that one unit is a factor of ten. The term koff denotes the rate constant with which the complex falls apart. Low values mean slow dissociation, high ones fast dissociation. What is called kon is a measure of how fast the partners come together. As to Expi293-derived adalimumab (antibody), the pKd is 5.81, the koff turned out to be 0.062 s⁻¹ and the kon turned out to be 40000 M⁻¹ s⁻¹.
